The source of these data is publication PMC4957051, “Molecular Mechanism of Z α1-Antitrypsin Deficiency*” (The Journal of Biological Chemistry, 2016).

B1: α1-AT-S292C-T339C-E342A, reduced form (natural protein, human, UniProt P01009 25-418, looked up)
chain: EDPQGDAAQKTDTSHHDQDHPTFNKITPNLAEFAFSLYRQLAHQSNSTNIFFSPVSIATAFAMLSLGTKADTHDEILEGLNFNLTEIPEAQIHEGFQELLRTLNQPDSQLQLTTGNGLFLSEGLKLVDKFLEDVKKLYHSEAFTVNFGDTEEAKKQINDYVEKGTQGKIVDLVKELDRDTVFALVNYIFFKGKWERPFEVKDTEEEDFHVDQVTTVKVPMMKRLGMFNIQHSKKLSSWVLLMKYLGNATAIFFLPDEGKLQHLENELTHDIITKFLENEDRRSASLHLPKLCITGTYDLKSVLGQLGITKVFSNGADLSGVTEEAPLKLSKAVHKAVLCIDAKGTEAAGAMFLEAIPRSIPPEVKFNKPFVFLMIEQNTKSPLFMGKVVNPTQK
notes: α1-antitrypsin (α1-AT), human cDNA in pQE31, Pittsburgh backbone (M358R and C232S) with S292C, T339C and E342A; Same chain as m6, with the engineered disulfide reduced; also called α1-AT-SS-E342A (reduced); source: E. coli, purified; reduced form prepared
B2: α1-AT E342A (Pittsburgh backbone) (natural protein, human, UniProt P01009 25-418, looked up)
chain: EDPQGDAAQKTDTSHHDQDHPTFNKITPNLAEFAFSLYRQLAHQSNSTNIFFSPVSIATAFAMLSLGTKADTHDEILEGLNFNLTEIPEAQIHEGFQELLRTLNQPDSQLQLTTGNGLFLSEGLKLVDKFLEDVKKLYHSEAFTVNFGDTEEAKKQINDYVEKGTQGKIVDLVKELDRDTVFALVNYIFFKGKWERPFEVKDTEEEDFHVDQVTTVKVPMMKRLGMFNIQHSKKLSSWVLLMKYLGNATAIFFLPDEGKLQHLENELTHDIITKFLENEDRRSASLHLPKLSITGTYDLKSVLGQLGITKVFSNGADLSGVTEEAPLKLSKAVHKAVLTIDAKGTEAAGAMFLEAIPRSIPPEVKFNKPFVFLMIEQNTKSPLFMGKVVNPTQK
notes: α1-antitrypsin (α1-AT), human cDNA in pQE31, Pittsburgh backbone (M358R and C232S) with E342A; also called E342A mutant; source: E. coli, purified from the soluble fraction of the lysate

The target in one data set is thrombin. The data set can be described thus: rates and stoichiometries of protease inhibition; as described previously (ref. 48); each value the average of three independent measurements.
The target of another data set is activated factor X (FXa). Described as above.
For data set [1], the target named is B1. The data set can be described thus: native gel or EMSA; peptide annealing: α1-AT variants (0.5 mg/ml) incubated with 100-fold molar excess of 6-mer peptide at 37 °C for different time intervals, then 8% native gel with 7 M urea; the binary complex resists urea. The following applies: both partners purified. (In EMSA bound probe runs differently from free probe, usually more slowly.)

Data set [2] deals with T1, recombinant wild type α1-antitrypsin (α1-AT Pittsburgh backbone, M358R and C232S) (human, UniProt P01009 25-418, M358R | C232S).
T1 construct: α1-antitrypsin (α1-AT), human cDNA in pQE31, Pittsburgh backbone (M358R and C232S); probably the mature protein behind the tag; also called Wt; WT; source: E. coli, purified from the soluble fraction of the lysate
The data set is described as above. The following applies: both partners purified.

The target of data set [3] is T2, α1-AT-S292C-T339C-E342A, oxidized form (disulfide between s5A and s6A) (human, UniProt P01009 25-418, M358R | C232S | S292C | T339C | E342A, disulfide bond linking s5A and s6A (Cys-292 and Cys-339)).
T2 construct: α1-antitrypsin (α1-AT), human cDNA in pQE31, Pittsburgh backbone (M358R and C232S) with S292C, T339C and E342A; Same chain as m7, with the engineered disulfide formed; also called α1-AT-SS-E342A (oxidized); source: E. coli, purified; oxidized form prepared
Described as above. Particulars: both partners purified.

Data set [4] concerns the target T3, α1-AT E342C (Pittsburgh backbone) (human, UniProt P01009 25-418, M358R | C232S | E342C).
T3 construct: α1-antitrypsin (α1-AT), human cDNA in pQE31, Pittsburgh backbone (M358R and C232S) with E342C; also called E342C mutant; source: E. coli, purified from the soluble fraction of the lysate
The data set is described as above. Particulars: both partners purified.

Data set [5] concerns the target B2. Described as above. Particulars: both partners purified.
Data set [6] concerns the molecule itself. Briefly: native gel or EMSA; thermal stability: α1-AT variants incubated at various temperatures in 10 mM Tris-HCl, pH 7.4, 0.1 M NaCl, 0.5 M urea for 30 min, then native gel.

For “α1-AT E342C (Pittsburgh backbone) (from UniProt P01009 25-418) (natural protein)”, the SI (stoichiometry of inhibition) with thrombin and with activated factor X (FXa) was 3 throughout.

As to “recombinant wild type α1-antitrypsin (α1-AT Pittsburgh backbone, M358R and C232S) (from UniProt P01009 25-418) (natural protein)”, in the data set with thrombin, the SI (stoichiometry of inhibition) was determined as 1.6.

Consider “α1-AT E342C-mod (E342C with Cys-342 chemically converted to a lysine-like residue) (from UniProt P01009 25-418) (natural protein)”, for which the SI (stoichiometry of inhibition) with thrombin and with activated factor X (FXa) was 3.4 throughout.

For the molecule FLEAIG [6-mer peptide (FLEAIG) derived from the P7 to P2 sequence of the α1-AT reactive loop], the binding result in data set [1], in data set [2], in data set [3], in data set [4] and in data set [5] was “binds” each time.

Consider B1, for which the binding result in data set [6] was “binds”.

On to B2, for which, in data set [6], the binding result was “binds”.
